Literature values in US6664231B1, “Anti-fungal peptides” (priority 1993, dated 2003).

Experiments:
gram-negative bacteria = conditions: as low as; cited from earlier work
[1] = system: Candida albicans and Candida parapsilosis; conditions: 10^−6 M, pH 7.0 or 5.5; cited from earlier work
[2] = system: human, rabbit and sheep red blood cells and several human tumor cell lines; conditions: cited from earlier work
[3] = system: gram-positive organisms Staphylococcus aureus, Staphylococcus epidermidis, Streptococcus faecalis, Bacillus subtilis, Micrococcus lysodeikricus, Listeria …; conditions: 10^−6 M or 160 μg/ml, pH 7.0 or 5.5; cited from earlier work

B1: BPI: bactericidal/permeability-increasing protein isolated from the granules of mammalian polymorphonuclear leukocytes (protein, UniProt P17213 32-487, looked up)
Bactericidal …: VNPGVVVRISQKGLDYASQQGTAALQKELKRIKIPDYSDSFKIKHLGKGHYSFYSMDIREFQLPSSQISMVPNVGLKFSISNANIKISGKWKAQKRFLKMSGNFDLSIEGMSISADLKLGSNPTSGKPTITCSSCSSHINSVHVHISKSKVGWLIQLFHKKIESALRNKMNSQVCEKVTNSVSSELQPYFQTLPVMTKIDSVAGINYGLVAPPATTAETLDVQMKGEFYSENHHNPPPFAPPVMEFPAAHDRMVYLGLSDYFFNTAGLVYQEAGVLKMTLRDDMIPKESKFRLTTKFFGTFLPEVAKKFPNMKIQIHVSASTPPHLSVQPTGLTFYPAVDVQAFAVLPNSSLASLFLIGMHTTGSMEVSAESNRLVGELKLDRLLLELKHSNIGPFPVELLQDIMNYIVPILVLPRVNEKLQKGFPLPTPARVQLYNVVLQPHQNFLLFGADVVYK
- concentration exhibiting anti-bacterial activity towards gram-negative bacteria (gram-negative bacteria): 10^−8 to 10^−9 M
- toxic effect on fungi [1]: no toxic effect
- toxicity to higher eukaryotic cells [2]: non-toxic
- toxic effect on gram-positive organisms [3]: no toxic effect
